Consider three substances from publication PMC4049591.

A short description of series [1]: HA immunoblot of auto-cleavage. To be noted: glycan lost; control: wild-type SHH-HA. (In general: A western blot detects proteins with antibodies after separation by electrophoresis.)
Series [2] in a line: cycloheximide chase of SHH-C, HA immunoblot. The conditions noted are these: glycan changed form; control: untreated cells.

In the case of sonic hedgehog (SHH): N278A, in series [1], the “other: proteolytic processing” value is “abolishes”.

Turning to “sonic hedgehog (SHH): castanospermine (CST)”, the degradation_or_half_life result in series [2] was “decreases”.

With sonic hedgehog (SHH): kifunensine (KIF), the degradation_or_half_life result in series [2] is “decreases”.
